Test results published in patent US20220073604A1 (ARGENX BVBA, published 2022).
Residue numbers refer to the chain shown, from its start. Values joined by “and” are separate entries in the source; they are usually repeats but may differ in a detail not shown here. Equal values may be shown once.

B1: 111B1 (antibody, V domains shown)
VH: EVQLLESGGGLVQPGGSLRLSCAASGFTFSSYAMYWVRQPPGKGLEWVSRISAGGGSTYYGDSVKGRFTISRDNSKNTLYLQMNSLRAEDTAVYYCANRAGWGMGDYWGQGTLVTVSS
VL: QTVVTQEPSFSVSPGGTVTLTCGLSSGSVTASNYPGWFQQTPGQAPRALIYSTNDRHSGVPDRFSGSILGNKAALTITGAQAEDEADYYCALDIGDITEFGGGTQLTVL
B2: 104C1 (antibody, V domains shown)
VH: B1 VH with P40A, S75A, L79V, R87K, A88P, L113Q
VL: QTVVTQEPSFSVSPGGTVTLTCGLSSGSVTASNYPGWYQQTPGQAPRALIYSTNDRHSGVPDRFSGSISGNKAALTITGAQADDESDYYCALDIGDITEFGGGTKLTVLG
B3: 68F2 antibody (antibody, V domains shown)
VH: EVQLQESGPGLVKPSQTLSLTCTVSGGSITTRYYAWSWIRQPPGKGLEWMGVIDYDGDTYYSPSLKSRTSISWDTSKNQFSLQLSSVTPEDTAVYYCARDPDVVTGFHYDYWGQGTQVTVSS
VL: QSALTQPPLVSGTPGQTVTISCAGANNDIGTYAYVSWYQQLPGTAPKLLIYKVTTRASGIPSRFSGSKSGNTASLTISGLQSEDEADYYCASYRNFNNAVFGRGTHLTVLG
B4: 61H7 antibody (antibody, V domains shown)
VH: B1 VH with L5V, A33R, R50A, S75A, L79V, R87K, A88P, L113Q
VL: B2 VL with F10L, Y38F, D62S, A82P, D83E, S86A, K105H
B5: 133E5 (antibody, V domains shown)
VH: B3 VH with E1Q, T31S, M50I, T69V, S70T, Q83K
VL: QSALTQPPSVSGSPGQTVTISCAGANNDIGTYAYVSWYQQLPGTAPKLMIYKVTTRASGIPDRFSGSKSGNTASLTISGLQAEDEADYYCASYRNFNNAVFGRGTKLTVL
B6: 61H7 (Fab, V domains shown)
VH: B1 VH with L5V, A33R, R50A, S75A, L79V, R87K, A88P, L113Q
VL: B2 VL with F10L, Y38F, D62S, A82P, D83E, S86A, K105H
B7: 61B7 (Fab, V domains shown)
VH: ELQLVESGGGLVQPGGSLRLSCAASGFTFSSYAMSWVRQAPGKGPEWVSRISSGGGSAYYADSVKGRFTISRDNAKNTLYLQMNSLKPEDTAVYYCANRAGWGMGDYWGQGTQVTVSS
VL: B2 VL with F10L, Y38F, D62S, A82P, D83E, S86A, K105H
notes: Fab
B8: 55H1 (Fab, V domains shown)
VH: EVQLVESGGGLVQPGGSLRLSCAASGFTFSSYAMSWVRQAPGKGLEWVSRISSGGISTYYADSVKGRFTISRDNAKNTLYLQMNSLKPEDTAVYYCVRYAWGVQWAFDFWGQGTQVTVSS
VL: AQSVVTQPPSVSGSPGKTVTISCAGTSSDVGYGNYVSWYQQLPGMAPKLLIYDVSKRASGIADRFSGSKSGNTASLTISGLQSEDEADYVCASYRRGGTAVFGGGTHLTVLG
B9: Fab 28B6 (Fab, V domains shown)
VH: QVQLVESGGGLVQPGGSLRLSCAASGFTFSNYYMTWVRQAPGKGLEWVSSIYSFSGDTAYADSVKGRFTISRDNAKNTLYLQMNSLKSEDTAVYYCTRNLGGVVVTTNGYDYWGQGTQVTVSS
VL: DIQLTQSPSSLSASLGDRVTITCQASQSISTELSWYQQKPGQTPKLLIYGASRLQTGVPARFSGSGSGTSFTLTISGLEAEDLATYYCLQDYSWPYSFGSGTRL
notes: Fab; also called 28f3(28B6)
B10: Fab 24A3 (Fab, V domains shown)
VH: QVQVQESGGGLVQPGGSLRLSCAASGFTFSNYAMSWVRQAPGKGLEWVSGISFRGGMISYVDSVKGRFTISRDNAKNTLYLQMNSLKPEDTAVYYCAKNSGSSRSNALDAWGQGTLVTVSS
VL: LNFMLTQPPSVSGSPGQKFTIRCTGSFRSDSYVNWYQQLPGTAPKLLINYDDRRVSGVPSRFSGSKSGNSASLTIDGLQAEDEAEYYCSFWDHTFGGHVFGGGTKLTVLG
notes: Fab; also called 28f10(24A3)
B11: Fab 24G3 (Fab, V domains shown)
VH: QLQVVESGGGLVQPGSSLRLSCGASGFTFSSHRMYWVRQPPGKGLEWVSAISSSGVSTYYADSVKGRFTISRDNAKNTVYLQMNSLKPEDTALYYCKRRTWYGGEYDYWGQGTQVTVSS
VL: B2 VL with F10L, Y38F, D62S, A82P, D83E, S86A, K105H
notes: Fab; also called 28g12(24G3)
B12: 24D10 (Fab, V domains shown)
VH: B7 VH with E1Q, L4V, A58T, Y59S
VL: B2 VL with F10L, Y38F, D62S, A82P, D83E, S86A, K105H
notes: Purified Fab
B13: 61H7 (Fab, V domains shown)
VH: B1 VH with L5V, A33R, R50A, S75A, L79V, R87K, A88P, L113Q
VL: B2 VL with F10L, Y38F, D62S, A82P, D83E, S86A, K105H
notes: Fab; also called Fab 61H7
B14: Fab 111A7 with the CDR3 methionine changed to C (Fab, V domains shown)
VH: B1 VH with Y35S, P40A, L45P, M104C
VL: B1 VL with F38Y, L69S
B15: Fab 111A7 with the CDR3 methionine changed to R (Fab, V domains shown)
VH: B1 VH with Y35S, P40A, L45P, M104R
VL: B1 VL with F38Y, L69S
B16: Fab 111A7 with the CDR3 methionine changed to W (Fab, V domains shown)
VH: B1 VH with Y35S, P40A, L45P, M104W
VL: B1 VL with F38Y, L69S
B17: Fab 111A7 with the CDR3 methionine changed to N (Fab, V domains shown)
VH: B1 VH with Y35S, P40A, L45P, M104N
VL: B1 VL with F38Y, L69S
B18: Fab 111A7 with the CDR3 methionine changed to F (Fab, V domains shown)
VH: B1 VH with Y35S, P40A, L45P, M104F
VL: B1 VL with F38Y, L69S
B19: Fab 111A7 with the CDR3 methionine changed to K (Fab, V domains shown)
VH: B1 VH with Y35S, P40A, L45P, M104K
VL: B1 VL with F38Y, L69S

molecular target: T1, human IL-6 (human, UniProt P05231 30-212); experiment: cell-based or functional assay

Which “IC50, growth of IL-6-dependent 7TD1 cells with 75 pg/ml human IL-6” value (“IC50, growth” for short) does the source give for B1 here?
Its value is < 0.001 nM.

B2 was tested. Which “IC50, growth” value did it give?
The value was < 0.001 nM.

Which “IC50, growth” value does the source give for B3 here?
The value was < 0.001 nM.

How did the “IC50, growth” value turn out when B4 was run?
The value was < 0.001 nM.

With B5 as the binder, how does the “IC50, growth” value read?
The value was < 0.001 nM.

molecular target: IL-6 surfaces of Table 8 (Bact, euk, cyno), average; experiment: SPR (Biacore), off-rate screen

How did the Average binding (RU) turn out when B6 was run?
Its Average binding (RU) is 635 RU.

B7 was tested. Which Average binding (RU) did it give?
The Average binding (RU) was 597 RU.

How did the Average binding (RU) turn out when B8 was run?
The Average binding (RU) was 773 RU and 770 RU and 873 RU.

molecular target: T2, bacterially produced human IL-6 (human, UniProt P05231 30-212); experiment: SPR; periplasmic fraction
T2 construct: also called bactIL-6; prokaryotic IL-6
Protocol: (§1) From the washing phase the off-rate (kd) was determined, while from the injection phase the on-rate (ka) was calculated using the concentration and off-rate as parameters.

Which koff does the source give for B9 here?
Its koff is 7.71e-05 s⁻¹.

B10 was tested. Which koff did it give?
Its koff is 8.42e-05 s⁻¹.

Which koff does the source give for B11 here?
Its koff is 0.000112 s⁻¹.

molecular target: T3, eukaryotically produced human IL-6 (human, UniProt P05231 30-212); experiment: SPR; periplasmic fraction
T3 construct: also called eukIL-6; Euk IL-6
Protocol: as §1

For B9, which koff is on record?
The koff was 3.5e-05 s⁻¹.

B10 was tested. Which koff did it give?
Its koff is 7.6e-05 s⁻¹.

How did the koff turn out when B11 was run?
Its koff is 7.52e-05 s⁻¹.

molecular target: T4, bacterially produced human IL-6 (human, UniProt P05231 30-212); experiment: SPR (Biacore), purified Fab
T4 construct: Immobilised on the Biacore chip; also called BACT IL-6 (2-1); bactIL-6

How did the Kd turn out when B7 was run?
The Kd was 0.16 nM.

What about the koff of the same binder?
The koff was 5.7e-05 s⁻¹.

And the kon?
The kon was 350000 M⁻¹ s⁻¹.

Which Kd does the source give for B12 here?
Its Kd is 0.5 nM.

And the koff?
Its koff is 0.0001 s⁻¹.

What about the kon of the same binder?
The kon was 210000 M⁻¹ s⁻¹.

What does the source list for B13?
Kd: 0.017 nM; koff: 2e-06 s⁻¹; kon: 120000 M⁻¹ s⁻¹

molecular target: T5, eukaryotically produced human IL-6 (human, UniProt P05231 30-212); experiment: SPR (Biacore), purified Fab
T5 construct: Immobilised on the Biacore chip; also called Euk IL-6; EUK IL-6 (3-1)

What does the source list for B7?
Kd: 0.2 nM; koff: 6.6e-05 s⁻¹; kon: 330000 M⁻¹ s⁻¹

With B12 as the binder, how does the Kd read?
The Kd was 0.41 nM.

What about the koff of the same binder?
Its koff is 0.0001 s⁻¹.

And the kon?
Its kon is 250000 M⁻¹ s⁻¹.

With B13 as the binder, how does the Kd read?
Its Kd is 0.45 nM.

And the koff?
Its koff is 5.5e-05 s⁻¹.

What about the kon of the same binder?
Its kon is 120000 M⁻¹ s⁻¹.

molecular target: T2, bacterially produced human IL-6; experiment: SPR; purified Fab; IL-6 coated on CM5 chip;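 further: dissociation rate taken from the wash phase, association rate fitted over the injection phase with analyte concentration and dissociation rate as inputs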
Protocol: as §1

With B10 as the binder, how does the Kd read?
The Kd was 0.22 nM.

And the koff?
Its koff is 4.8e-05 s⁻¹.

molecular target: T3, eukaryotically produced human IL-6; experiment: SPR; purified Fab; IL-6 coated on CM5 chip;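 further: dissociation rate taken from the wash phase, association rate fitted over the injection phase with analyte concentration and dissociation rate as inputs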
Protocol: as §1

With B10 as the binder, how does the Kd read?
Its Kd is 0.59 nM.

And the koff?
The koff was 0.00011 s⁻¹.

molecular target: T2, bacterially produced human IL-6; experiment: SPR; periplasmic fraction; ratio bact to euk IL-6
Protocol: as §1

With B9 as the binder, how does the ratio bact/euk read?
Its ratio bact/euk is 1.

For B10, which ratio bact/euk is on record?
Its ratio bact/euk is 1.2.

For B11, which ratio bact/euk is on record?
The ratio bact/euk was 0.96.

molecular target: T1, human IL-6; experiment: SPR; periplasmic fraction; average of the IL-6 channels; set-up: unit not given here

For B9, which average binding is on record?
The average binding was 43.

B10 was tested. Which average binding did it give?
The average binding was 286.

How did the average binding turn out when B11 was run?
The average binding was 46.

molecular target: IL-6 (bact-hIL-6, euk-hIL-6 and bact-cy IL-6; 'average binding' of Table 21); experiment: average binding level in the off-rate screen (unit not given; n = 1)

Which average binding does the source give for B14 here?
Its average binding is 42.

With B15 as the binder, how does the average binding read?
The average binding was 64.

For B16, which average binding is on record?
The average binding was 26.

Which average binding does the source give for B17 here?
The average binding was 137.

Which average binding does the source give for B18 here?
Its average binding is 144.

For B19, which average binding is on record?
The average binding was 81.

molecular target: T6, bacterially produced cynomolgus monkey IL-6 (cynomolgus monkey, UniProt P79341 28-212, limits assumed); experiment: off-rate of Fab 111A7 variant on bact-cy IL-6 (binding kinetics, SPR presumed; n = 1)
T6 construct: also called bact-cy IL-6; HIS-cyIL-6

B14 was tested. Which koff did it give?
The koff was 9.46e-05 s⁻¹.

For B15, which koff is on record?
The koff was 0.000121 s⁻¹.

Which koff does the source give for B16 here?
The koff was 0.000177 s⁻¹.

How did the koff turn out when B17 was run?
The koff was 0.000207 s⁻¹.

Which koff does the source give for B18 here?
Its koff is 0.000203 s⁻¹.

For B19, which koff is on record?
Its koff is 0.00417 s⁻¹.
